Data from article PMC6794372.

Key:
[1] = target: PRA, recombinant C-terminal domain of MYH9, His-SUMO tag removed; assay: non-reducing SDS-PAGE and Western blot; PRA (5 mM) alone or pre-incubated with S100A4 (10 mM, 3 mM CaCl2) at 4°C for 1 h; without DTT; blot with anti-MYH9 pAb
[2] = target: PRA, recombinant C-terminal domain of MYH9, His-SUMO tag removed; assay: negative-stain electron microscopy; purified PRA (5 mM) for 1 h at 4°C in 50 mM Tris, 150 mM NaCl, 10% glycerol, 3 mM CaCl2; supernatant after centrifugation, 1% uranyl acetate

stoichiometry N [1]: 2
stoichiometry N [2]: 2
Substance: PRA, recombinant C-terminal domain of MYH9, His-SUMO tag removed (domain or fragment)
